In patent US20180244796A1 (CARSGEN THERAPEUTICS, published 2018):
Ends that are not written are not given here. muFc = mouse Fc fragment of vector pCMV-V5-muFc

How the values were obtained:
[1] = biological target: T1, scFv-P1A6E-Fc (human, UniProt P01857-1 99-330 = IgG part, limits assumed); test: ELISA, scFv-Fc against MSLT-R1-mFc; x axis con.(nM), the sheet does not say whose concentration [left panel]
T1 construct: domain: Fc fragment; scFv cloned NheI/BamHI into pCMV-V5-Fc, expressed in HEK-293F, protein A purified; also called P1A6E single chain antibody; antibody-Fc fusion protein scFv-P1A6E-Fc

[2] = biological target: T2, scFv-P3F2-Fc (human, UniProt P01857-1 99-330 = IgG part, limits assumed); test: ELISA, scFv-Fc against MSLT-R1-mFc; x axis con.(nM), the sheet does not say whose concentration [right panel]
T2 construct: domain: Fc fragment; scFv cloned NheI/BamHI into pCMV-V5-Fc, expressed in HEK-293F, protein A purified; also called P3F2 single chain antibody; P3F2 single chain antibod

[3] = biological target: T1, scFv-P1A6E-Fc; test: ELISA, scFv-Fc against MSTL-R1AB-mFc; x axis con.(nM), the sheet does not say whose concentration [left panel]
[4] = biological target: T2, scFv-P3F2-Fc; test: ELISA, scFv-Fc against MSTL-R1AB-mFc; x axis con.(nM), the sheet does not say whose concentration [right panel]
[5] = biological target: T1, scFv-P1A6E-Fc; test: ELISA, scFv-Fc against MSTL-R1A-mFc; x axis con.(nM), the sheet does not say whose concentration [left panel]
[6] = biological target: T2, scFv-P3F2-Fc; test: ELISA, scFv-Fc against MSTL-R1A-mFc; x axis con.(nM), the sheet does not say whose concentration [right panel]
[7] = biological target: T2, scFv-P3F2-Fc; test: flow cytometry on PANC-1-MSLN cells, 20 ug/ml antibody, goat anti-human-FITC
Description: (§1) Each of antibodies scFv-P1A6E-Fc and scFv-P3F2-Fc was analyzed for binding ability to mesothelin at cell surface by Fluorescence Activated Cell Sorter (FACS) (Guava 8HT, supplied by Millipore).
(§2) 4) antibodies P1A6E and P3F2 to be tested were added into the two experimental groups, respectively, adding antibodies ss and C10 (purchased from Shanghai Rui Jin Biotechnology Co., Ltd.) were added into two positive control groups added as positive controls, and another control group is PBS blank control without antibody. The final concentration of each antibody was 20 μg/ml. 100 μl was added to each tube, and incubated in an ice bath for 45 minutes.

[8] = biological target: T1, scFv-P1A6E-Fc; test: as above
Description: as §1, §2

[9] = biological target: T1, scFv-P1A6E-Fc; test: ELISA, scFv-Fc against MSTL-R1B-mFc; x axis con.(nM) [left panel]
[10] = biological target: T2, scFv-P3F2-Fc; test: ELISA, scFv-Fc against MSTL-R1B-mFc; x axis con.(nM) [right panel]
[11] = biological target: T2, scFv-P3F2-Fc; test: ELISA, scFv-Fc against MSLT-R2-mFc; x axis con.(nM) [right panel]
[12] = biological target: T1, scFv-P1A6E-Fc; test: ELISA, scFv-Fc against MSLT-R2-mFc; x axis con.(nM) [left panel]
[13] = biological target: T2, scFv-P3F2-Fc; test: ELISA, scFv-Fc against MSLT-R3-mFc; x axis con.(nM) [right panel]
[14] = biological target: T1, scFv-P1A6E-Fc; test: ELISA, scFv-Fc against MSLT-R3-mFc; x axis con.(nM) [left panel]
[15] = biological target: T2, scFv-P3F2-Fc; test: ELISA on peptide-muFc fusion proteins
[16] = biological target: T1, scFv-P1A6E-Fc; test: ELISA on peptide-muFc fusion proteins

T1 sequence (P01857 other isoform, or with tags, fused parts or gaps limits assumed): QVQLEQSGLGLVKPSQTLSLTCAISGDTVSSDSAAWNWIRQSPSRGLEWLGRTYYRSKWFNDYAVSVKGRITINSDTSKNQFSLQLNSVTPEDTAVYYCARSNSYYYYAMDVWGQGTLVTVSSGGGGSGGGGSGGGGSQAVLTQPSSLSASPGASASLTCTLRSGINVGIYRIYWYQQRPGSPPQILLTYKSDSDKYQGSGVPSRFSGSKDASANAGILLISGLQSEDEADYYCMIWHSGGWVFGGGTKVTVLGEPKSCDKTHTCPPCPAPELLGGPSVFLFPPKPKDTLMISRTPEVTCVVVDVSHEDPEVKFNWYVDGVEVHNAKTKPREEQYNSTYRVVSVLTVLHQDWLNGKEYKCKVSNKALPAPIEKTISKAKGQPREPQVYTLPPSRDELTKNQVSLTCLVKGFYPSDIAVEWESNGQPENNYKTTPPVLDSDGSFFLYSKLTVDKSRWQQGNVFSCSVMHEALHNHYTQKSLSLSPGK
T2 sequence (P01857 other isoform, or with tags, fused parts or gaps limits assumed): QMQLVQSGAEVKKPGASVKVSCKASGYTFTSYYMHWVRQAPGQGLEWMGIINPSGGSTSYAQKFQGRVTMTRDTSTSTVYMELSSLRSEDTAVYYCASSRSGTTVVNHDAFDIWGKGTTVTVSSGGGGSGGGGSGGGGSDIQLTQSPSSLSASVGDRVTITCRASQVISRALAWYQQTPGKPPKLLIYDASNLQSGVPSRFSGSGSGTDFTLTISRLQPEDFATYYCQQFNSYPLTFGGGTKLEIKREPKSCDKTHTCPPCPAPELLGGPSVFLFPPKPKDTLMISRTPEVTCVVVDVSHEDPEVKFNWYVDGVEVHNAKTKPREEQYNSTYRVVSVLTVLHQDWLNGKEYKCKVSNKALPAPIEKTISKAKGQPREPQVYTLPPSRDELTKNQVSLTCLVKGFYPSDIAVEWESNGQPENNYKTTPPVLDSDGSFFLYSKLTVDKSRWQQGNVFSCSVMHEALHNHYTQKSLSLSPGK

B1: human mesothelin region R1 (E296-T390)-muFc fusion protein (Fc fusion)
chain: EVEKTACPSGKKAREIDESLIFYKKWELEACVDAALLATQMDRVNAIPFTYEQLDVLKHKLDELYPQGYPESVIQHLGYLFLKMSPEDIRKWNVT
notes: also called region 1; not shown: mouse Fc fragment of vector pCMV-V5-muFc
B1: binds [1]; binds [2].

B2: human mesothelin region R1AB (296E-359L)-muFc fusion protein (Fc fusion)
chain: EVEKTACPSGKKAREIDESLIFYKKWELEACVDAALLATQMDRVNAIPFTYEQLDVLKHKLDEL
notes: not shown: mouse Fc fragment of vector pCMV-V5-muFc
B2: binds [3]; binds [4].

B3: human mesothelin region R1A (296E-337D)-muFc fusion protein (Fc fusion)
chain: EVEKTACPSGKKAREIDESLIFYKKWELEACVDAALLATQMD
notes: as for B2
B3: binds [5]; binds [6].

B4: human mesothelin on PANC-1-MSLN cells (other)
chain: APLADYKDDDDKEVEKTACPSGKKAREIDESLIFYKKWELEACVDAALLATQMDRVNAIPFTYEQLDVLKHKLDELYPQGYPESVIQHLGYLFLKMSPEDIRKWNVTSLETLKALLEVNKGHEMSPQVATLIDRFVKGRGQLDKDTLDTLTAFYPGYLCSLSPEELSSVPPSSIWAVRPQDLDTCDPRQLDVLYPKARLAFQNMNGSEYFVKIQSFLGGAPTEDLKALSQQNVSMDLATFMKLRTDAVLPLTVAEVQKLLGPHVEGLKAEERHRPVRDWILRQRQDDLDTLGLGLQGGIPNGYLVLDLSMQEALS
notes: also called mesothelin at cell surface
B4: binds [7]; binds [8].

B5: human mesothelin region R1B (328D-369I)-muFc fusion protein (Fc fusion)
chain: DAALLATQMDRVNAIPFTYEQLDVLKHKLDELYPQGYPESVI-muFc
notes: as for B2
B5: no binding (tested: last point just under 100 nM) [9]; no binding (tested: last point just under 100 nM) [10].

B6: human mesothelin region R2 (S391-Q486)-muFc fusion protein (Fc fusion)
chain: SLETLKALLEVNKGHEMSPQVATLIDRFVKGRGQLDKDTLDTLTAFYPGYLCSLSPEELSSVPPSSIWAVRPQDLDTCDPRQLDVLYPKARLAFQ
notes: as for B2
B6: no binding (tested: last point between 100 and 1000 nM) [11]; no binding (tested: last point between 100 and 1000 nM) [12].

B7: human mesothelin region R3 (N487-G581)-muFc fusion protein (Fc fusion)
chain: NMNGSEYFVKIQSFLGGAPTEDLKALSQQNVSMDLATFMKLRTDAVLPLTVAEVQKLLGPHVEGLKAEERHRPVRDWILRQRQDDLDTLGLGLQG
notes: as for B2
B7: no binding (tested: last point between 100 and 1000 nM) [13]; no binding (tested: last point between 100 and 1000 nM) [14].

YKKWELEACVDAALLATQMDRVNAIPFTYE (Fc fusion, not shown: mouse Fc fragment (muFc)) [mesothelin peptide R1J10-muFc fusion protein]: no binding [15]; no binding [16].
